For orientation: Kd means the constant that tells how readily two partners part at equilibrium.

Where no end group is shown, it is not given here.

From PMC6662822, “Rational drug-design approach supported with thermodynamic studies — a peptide leader for the efficient bi-substrate inhibitor of protein kinase CK2” (Scientific Reports, 2019) come the findings set out here.

Holding throughout (conditions): both partners purified
In experiment [1] the target is T1, catalytic subunit of human protein kinase CK2 (human, UniProt P68400 1-391, NT-647 dye (NanoTemper Protein Labeling Kit RED), in the MST experiments only).
T1 construct: catalytic subunit (alpha) of human protein kinase CK2; The His tag is named only for the pull-down (immobilised on cobalt resin); also called hCK2α; CK2α
The experiment in a line: other fluorescence titration; nanoDSF (Prometheus NT.48): 350 nm/330 nm fluorescence ratio at 25 °C (native protein) against peptide concentration; 2.5 μM hCK2α, peptide 300 nM-10 mM, 25 mM Tris-HCl pH 7, 0.5 M NaCl; single binding site model. (In DSF a fluorescence change marks the thermal transition of the protein.)

In experiment [2] the target is T1, catalytic subunit of human protein …. The experiment in a line: MST; as a6, labelled hCK2α in the presence of TBBt (hCK2α/TBBt complex).
The target is the same in experiment [3]. The experiment in a line: other fluorescence titration; nanoDSF as a3, but data at 75 °C: unfolded form of hCK2α.
Experiment [4] shares this target. Description: other fluorescence titration; nanoDSF as a3 (25 °C), hCK2α in the presence of TBBt (hCK2α/TBBt complex).
For experiment [5] the target is unchanged. Description: MST; hCK2α labelled with NT-647 dye, 50 nM; ligand 100 nM-10 mM; thermophoresis with temperature jump; global fit of three independent pseudo-titrations.

T1 sequence (P68400 whole entry): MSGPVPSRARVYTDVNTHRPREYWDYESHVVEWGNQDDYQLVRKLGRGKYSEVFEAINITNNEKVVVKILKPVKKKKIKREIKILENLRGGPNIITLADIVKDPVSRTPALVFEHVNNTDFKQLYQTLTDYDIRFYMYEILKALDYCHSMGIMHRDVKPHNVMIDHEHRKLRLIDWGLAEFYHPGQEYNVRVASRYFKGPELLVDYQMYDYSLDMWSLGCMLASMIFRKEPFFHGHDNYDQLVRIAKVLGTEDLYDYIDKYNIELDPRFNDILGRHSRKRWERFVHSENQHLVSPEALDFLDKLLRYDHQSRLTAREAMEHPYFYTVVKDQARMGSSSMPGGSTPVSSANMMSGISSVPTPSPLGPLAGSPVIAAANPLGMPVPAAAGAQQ

B1: EETEEE-NH2 (peptide)
peptide: EETEEE-NH2
notes: source: synthetic peptide (solid-phase synthesis, purified by HPLC); in the pull-down as a member of the synthetic library
For the molecule B1, the Kd in experiment [1] amounted to 960 ± 30 µM.

B2: EESEEE-NH2 (peptide)
peptide: EESEEE-NH2
notes: as for B1
As for B2, the equilibrium dissociation constant (Kd) in experiment [1] stood at 1580 ± 60 µM.

B3: KETEEE-NH2 (peptide)
peptide: KETEEE-NH2
notes: as for B1
On to B3, for which the Kd in experiment [1] came to 950 ± 50 µM.

B4: KESEEE-NH2 (peptide)
peptide: KESEEE-NH2
notes: source: synthetic peptide (solid-phase synthesis, purified by HPLC)
For the molecule B4, the Kd in experiment [2] was 360 ± 230 µM; in experiment [3] it was about 1 mM; in experiment [4], 450 ± 20 µM; in experiment [5] it was 0.39 ± 0.21 mM; in experiment [1] it was 350 ± 20 µM.

B5: RRRDDDSDDD (peptide)
peptide: RRRDDDSDDD
notes: The supplier is named in the methods of the kinase assay; also called CK2 substrate peptide; source: bought: Biaffin GmbH & Co KG
In the case of B5, in experiment [5], binding was put at a Kd of 2.1 ± 0.7 mM.
